Assay results reported in the supplement of paper PMC10065799, “High-throughput profiling of sequence recognition by tyrosine kinases and SH2 domains using bacterial peptide display” (eLife, 2023).

Columns and labels:
AncSZ = test: phosphorylation enrichment, bacterial display (enrichment ratio); higher = better substrate or ligand; peptides without Tyr show the background
EPHB1 = EPHB1 (UniProt P54762); test: as above
EPHB2 = EPHB2 (UniProt P29323); test: as above
FGFR1 = FGFR1 (UniProt P11362); test: as above
FGFR3 = FGFR3 (UniProt P22607); test: as above
Sequence of FGFR3 (P22607 whole entry, looked up): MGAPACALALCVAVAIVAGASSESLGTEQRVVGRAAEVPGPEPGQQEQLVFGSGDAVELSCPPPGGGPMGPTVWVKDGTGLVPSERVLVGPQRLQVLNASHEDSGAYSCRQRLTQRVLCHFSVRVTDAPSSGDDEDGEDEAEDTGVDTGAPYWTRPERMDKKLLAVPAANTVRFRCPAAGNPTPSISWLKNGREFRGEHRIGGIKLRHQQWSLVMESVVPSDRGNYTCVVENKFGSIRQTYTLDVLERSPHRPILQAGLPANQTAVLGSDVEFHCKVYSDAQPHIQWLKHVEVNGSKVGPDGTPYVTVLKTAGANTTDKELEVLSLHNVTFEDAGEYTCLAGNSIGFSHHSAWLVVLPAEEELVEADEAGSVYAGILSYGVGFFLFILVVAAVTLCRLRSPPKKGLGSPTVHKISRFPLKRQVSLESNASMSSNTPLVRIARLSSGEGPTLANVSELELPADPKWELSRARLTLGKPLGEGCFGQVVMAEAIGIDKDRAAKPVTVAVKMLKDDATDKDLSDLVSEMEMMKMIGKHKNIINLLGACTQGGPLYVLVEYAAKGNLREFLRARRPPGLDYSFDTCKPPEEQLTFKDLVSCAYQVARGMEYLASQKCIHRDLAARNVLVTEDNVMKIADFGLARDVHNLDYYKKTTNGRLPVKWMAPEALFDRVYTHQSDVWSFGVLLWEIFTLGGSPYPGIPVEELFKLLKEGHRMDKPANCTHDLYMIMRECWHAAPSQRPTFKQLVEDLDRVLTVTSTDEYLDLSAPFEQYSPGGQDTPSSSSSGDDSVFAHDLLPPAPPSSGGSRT

Fer (mouse) = test: as above
Fes = Fes (UniProt P07332); test: as above
Fyn = Fyn (UniProt P06241); test: as above
Hck = Hck (UniProt P08631); test: as above
Jak2 = Jak2 (UniProt O60674); test: as above
Sequence of Jak2 (O60674 whole entry, looked up): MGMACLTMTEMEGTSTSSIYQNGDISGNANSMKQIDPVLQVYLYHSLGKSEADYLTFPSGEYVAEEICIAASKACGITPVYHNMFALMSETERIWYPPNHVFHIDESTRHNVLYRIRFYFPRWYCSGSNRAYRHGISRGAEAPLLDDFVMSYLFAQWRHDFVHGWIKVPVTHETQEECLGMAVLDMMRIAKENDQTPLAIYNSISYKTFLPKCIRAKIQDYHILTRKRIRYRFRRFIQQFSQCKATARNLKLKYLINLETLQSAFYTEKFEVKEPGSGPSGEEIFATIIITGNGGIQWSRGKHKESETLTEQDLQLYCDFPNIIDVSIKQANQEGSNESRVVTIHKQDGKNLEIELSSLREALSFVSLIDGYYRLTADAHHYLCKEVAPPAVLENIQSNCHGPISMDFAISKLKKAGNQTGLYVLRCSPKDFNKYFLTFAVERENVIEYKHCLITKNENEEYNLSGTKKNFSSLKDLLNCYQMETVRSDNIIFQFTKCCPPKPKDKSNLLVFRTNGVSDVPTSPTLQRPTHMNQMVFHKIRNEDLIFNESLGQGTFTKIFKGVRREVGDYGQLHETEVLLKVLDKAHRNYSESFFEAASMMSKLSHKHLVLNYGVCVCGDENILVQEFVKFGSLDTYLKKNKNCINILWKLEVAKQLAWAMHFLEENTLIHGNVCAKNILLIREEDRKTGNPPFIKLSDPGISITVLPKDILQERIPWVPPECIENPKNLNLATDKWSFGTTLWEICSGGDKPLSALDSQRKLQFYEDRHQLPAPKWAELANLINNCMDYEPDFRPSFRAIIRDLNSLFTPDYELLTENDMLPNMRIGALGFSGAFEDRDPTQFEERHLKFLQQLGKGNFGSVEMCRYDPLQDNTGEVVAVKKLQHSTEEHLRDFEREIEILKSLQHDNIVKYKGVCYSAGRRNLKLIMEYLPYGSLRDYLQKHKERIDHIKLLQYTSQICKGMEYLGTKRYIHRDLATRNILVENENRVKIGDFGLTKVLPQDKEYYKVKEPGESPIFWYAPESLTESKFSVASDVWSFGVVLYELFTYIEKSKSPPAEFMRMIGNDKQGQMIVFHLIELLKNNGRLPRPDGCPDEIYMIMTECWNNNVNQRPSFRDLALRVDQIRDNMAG

MERTK = MERTK (UniProt Q12866); test: as above
Sequence of MERTK (Q12866 whole entry, looked up): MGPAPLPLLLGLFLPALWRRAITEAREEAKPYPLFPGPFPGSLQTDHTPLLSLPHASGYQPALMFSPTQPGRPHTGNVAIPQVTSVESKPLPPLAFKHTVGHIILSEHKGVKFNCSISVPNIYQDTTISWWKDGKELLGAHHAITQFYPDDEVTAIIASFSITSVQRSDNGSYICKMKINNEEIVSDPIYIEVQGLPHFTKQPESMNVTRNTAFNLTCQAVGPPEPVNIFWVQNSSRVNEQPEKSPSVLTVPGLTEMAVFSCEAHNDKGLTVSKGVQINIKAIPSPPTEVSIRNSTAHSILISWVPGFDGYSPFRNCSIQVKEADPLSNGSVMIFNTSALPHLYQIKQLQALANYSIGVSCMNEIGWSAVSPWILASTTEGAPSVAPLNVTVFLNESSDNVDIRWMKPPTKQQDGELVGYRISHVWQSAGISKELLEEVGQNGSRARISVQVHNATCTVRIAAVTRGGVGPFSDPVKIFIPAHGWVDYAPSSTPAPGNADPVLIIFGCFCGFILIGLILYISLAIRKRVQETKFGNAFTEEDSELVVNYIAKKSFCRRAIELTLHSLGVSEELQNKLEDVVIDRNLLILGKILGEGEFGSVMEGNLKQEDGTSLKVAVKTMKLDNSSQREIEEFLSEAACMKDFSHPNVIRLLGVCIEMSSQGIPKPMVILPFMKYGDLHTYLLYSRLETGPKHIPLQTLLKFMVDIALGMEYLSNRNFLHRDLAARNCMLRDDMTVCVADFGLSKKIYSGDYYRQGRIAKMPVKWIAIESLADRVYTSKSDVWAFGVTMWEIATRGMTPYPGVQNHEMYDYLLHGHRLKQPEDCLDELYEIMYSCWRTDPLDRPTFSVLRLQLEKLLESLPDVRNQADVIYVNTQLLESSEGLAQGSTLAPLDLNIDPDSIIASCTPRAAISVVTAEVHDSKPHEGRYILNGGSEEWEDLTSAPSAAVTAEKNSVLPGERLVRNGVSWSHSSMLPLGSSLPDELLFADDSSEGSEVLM

c-Abl (mouse) = test: as above
c-Src = test: as above
Grb2 SH2 = Grb2 SH2 (UniProt P62993); test: SH2 binding enrichment of the phosphorylated peptide, bacterial display (enrichment ratio); higher = better substrate or ligand; peptides without Tyr show the background
SHP2-C SH2 = test: as above
c-Src SH2 = test: as above
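For SH2 binding enrichment of the phosphorylated peptide, bacterial display in this document: peptide library displayed on the E. coli surface as eCPX fusions, selected cells deep-sequenced, score is each peptide's frequency after selection divided by its frequency in the input.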
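For phosphorylation enrichment, bacterial display in this document: 11-residue human phosphosite peptides and single-mutation variants displayed on the E. coli surface, counted by deep sequencing, each peptide's frequency after selection divided by its frequency in the unselected input library; frequency after pTyr selection over input frequency; kinase dosed for 20-30% of maximal phosphorylation in three min.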

Sequence of EPHB1 (P54762 whole entry, looked up): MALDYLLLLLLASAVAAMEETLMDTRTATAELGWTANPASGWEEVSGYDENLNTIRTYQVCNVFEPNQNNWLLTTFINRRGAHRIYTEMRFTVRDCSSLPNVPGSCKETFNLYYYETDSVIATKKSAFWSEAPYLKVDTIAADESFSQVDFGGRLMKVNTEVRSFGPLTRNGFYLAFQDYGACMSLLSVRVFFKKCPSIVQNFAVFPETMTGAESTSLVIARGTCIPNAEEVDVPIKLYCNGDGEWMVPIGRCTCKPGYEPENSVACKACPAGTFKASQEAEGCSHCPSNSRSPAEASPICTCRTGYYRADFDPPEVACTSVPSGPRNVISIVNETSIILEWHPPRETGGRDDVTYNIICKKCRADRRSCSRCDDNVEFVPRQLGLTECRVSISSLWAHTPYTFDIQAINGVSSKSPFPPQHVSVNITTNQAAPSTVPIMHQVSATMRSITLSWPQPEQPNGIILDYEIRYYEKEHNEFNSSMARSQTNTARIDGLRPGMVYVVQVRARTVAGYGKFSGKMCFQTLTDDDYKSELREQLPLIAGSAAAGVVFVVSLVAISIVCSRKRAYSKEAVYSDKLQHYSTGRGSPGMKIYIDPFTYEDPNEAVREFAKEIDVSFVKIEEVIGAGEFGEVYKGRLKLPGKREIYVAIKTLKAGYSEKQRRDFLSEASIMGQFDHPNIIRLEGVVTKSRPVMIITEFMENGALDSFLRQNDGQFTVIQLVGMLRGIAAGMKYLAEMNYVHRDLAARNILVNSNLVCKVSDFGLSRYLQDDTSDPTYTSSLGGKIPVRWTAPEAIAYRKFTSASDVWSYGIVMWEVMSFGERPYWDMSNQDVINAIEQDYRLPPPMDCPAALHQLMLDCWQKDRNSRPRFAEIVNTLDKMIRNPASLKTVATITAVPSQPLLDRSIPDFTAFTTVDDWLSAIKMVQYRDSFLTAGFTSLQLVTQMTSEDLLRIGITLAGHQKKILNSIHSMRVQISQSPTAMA
Sequence of EPHB2 (P29323 whole entry, looked up): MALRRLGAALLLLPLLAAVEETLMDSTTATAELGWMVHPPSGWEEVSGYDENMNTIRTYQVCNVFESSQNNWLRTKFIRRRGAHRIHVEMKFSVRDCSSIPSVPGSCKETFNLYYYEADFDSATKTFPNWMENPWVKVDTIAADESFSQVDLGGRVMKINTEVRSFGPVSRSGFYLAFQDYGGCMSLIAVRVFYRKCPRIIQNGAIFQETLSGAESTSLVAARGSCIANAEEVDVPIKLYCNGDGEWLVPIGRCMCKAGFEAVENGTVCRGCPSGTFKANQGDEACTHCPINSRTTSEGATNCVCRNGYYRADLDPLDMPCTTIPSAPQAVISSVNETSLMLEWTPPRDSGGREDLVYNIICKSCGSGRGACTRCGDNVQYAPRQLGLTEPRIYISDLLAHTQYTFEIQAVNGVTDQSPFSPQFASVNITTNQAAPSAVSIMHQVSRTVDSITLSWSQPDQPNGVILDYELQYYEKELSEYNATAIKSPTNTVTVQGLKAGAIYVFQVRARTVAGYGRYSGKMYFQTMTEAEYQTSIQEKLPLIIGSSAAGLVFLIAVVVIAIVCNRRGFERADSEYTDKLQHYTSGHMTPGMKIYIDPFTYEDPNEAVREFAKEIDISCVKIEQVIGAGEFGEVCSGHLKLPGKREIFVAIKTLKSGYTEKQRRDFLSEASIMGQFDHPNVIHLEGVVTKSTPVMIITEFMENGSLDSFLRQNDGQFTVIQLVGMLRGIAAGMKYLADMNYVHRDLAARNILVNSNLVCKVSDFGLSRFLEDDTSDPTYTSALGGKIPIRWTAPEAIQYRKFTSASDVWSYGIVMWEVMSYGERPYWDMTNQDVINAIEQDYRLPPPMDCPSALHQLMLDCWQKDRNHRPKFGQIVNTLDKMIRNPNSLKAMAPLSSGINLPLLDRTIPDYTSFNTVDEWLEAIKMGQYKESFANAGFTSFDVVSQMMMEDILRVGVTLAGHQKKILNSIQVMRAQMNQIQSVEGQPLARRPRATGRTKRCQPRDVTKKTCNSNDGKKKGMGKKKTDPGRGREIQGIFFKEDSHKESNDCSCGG

Sequence | phosphorylation enrichment (AncSZ) | phosphorylation enrichment (EPHB1) | phosphorylation enrichment (EPHB2) | phosphorylation enrichment (FGFR1) | phosphorylation enrichment (FGFR3) | phosphorylation enrichment (Fer (mouse)) | phosphorylation enrichment (Fes) | phosphorylation enrichment (Fyn) | phosphorylation enrichment (Hck) | phosphorylation enrichment (Jak2) | phosphorylation enrichment (MERTK) | phosphorylation enrichment (c-Abl (mouse)) | phosphorylation enrichment (c-Src) | SH2 binding enrichment (Grb2 SH2) | SH2 binding enrichment (SHP2-C SH2) | SH2 binding enrichment (c-Src SH2)
ASENVYVNIAH [CTSC_Y150] | 0.881 | 1.92 | 0.924 | 3.4 | 2.05 | 3.79 | 0.827 | 1.99 | 1.94 | 0.986 | 0.826 | 0.8 | 2.21 | 6.93 | 5.86 | 2.4
LVRPPYSYSAL [FOXI1_Y126] | 0.952 | 1.07 | 0.568 | 0.572 | 0.713 | 0.619 | 0.862 | 0.722 | 0.528 | 1.03 | 2.06 | 0.641 | 0.704 | 0.885 | 1.72 | 1.8
KNNDGNIDYAE [MCFD2_Y135_Y135N] | 1.13 | 0.572 | 0.53 | 0.501 | 0.916 | 0.453 | 1.13 | 0.462 | 0.524 | 0.776 | 0.479 | 0.62 | 0.388 | 1.05 | 0.792 | 0.694
VREIRCQGGNR [VWF_Y1570_Y1570C] | 0.648 | 0.416 | 0.432 | 0.478 | 0.419 | 0.296 | 0.682 | 0.401 | 0.465 | 0.771 | 0.406 | 0.675 | 0.5 | 0.963 | 0.591 | 0.477
SHNKFYMLVAH [MFSD8_Y134_R139H_YF] | 1.42 | 0.865 | 0.668 | 0.652 | 0.99 | 0.791 | 1.35 | 0.554 | 0.695 | 1.18 | 0.583 | 0.922 | 0.447 | 1.25 | 1.28 | 0.978
TFWKKYRTFWK [CCDC70_Y125] | 0.702 | 0.472 | 0.308 | 0.403 | 0.555 | 0.409 | 0.8 | 0.46 | 0.371 | 0.934 | 0.446 | 0.723 | 0.664 | 0.843 | 1.18 | 0.517
DSNLIYSQIWS [FCRL3_Y662_P660L] | 2.1 | 15.2 | 17.1 | 7.38 | 6.79 | 15.7 | 12.2 | 9.04 | 9.1 | 2.46 | 10 | 15.4 | 7.08 | 0.754 | 0.951 | 0.538
EWQQIYTFDSG [JUP_Y20_T19I_YF] | 1.78 | 1.21 | 0.906 | 7.82 | 5.97 | 4.03 | 1.58 | 11.9 | 7.35 | 1.21 | 9.37 | 1.06 | 9.4 | 1.23 | 0.92 | 0.555
PASWTYVRWFD [PTDSS1_Y274] | 1.71 | 1.12 | 1.1 | 0.907 | 1.35 | 0.729 | 1.79 | 0.669 | 1.14 | 1.79 | 0.51 | 1.04 | 1.01 | 1.47 | 1.65 | 0.766
KTVQDYLEKFY [MMP8_Y36] | 1.36 | 0.673 | 0.711 | 0.627 | 0.707 | 0.562 | 1.31 | 0.708 | 0.539 | 1.21 | 0.517 | 1.23 | 0.674 | 1.13 | 0.686 | 0.51
SDFFAYSPVRE [H6PD_Y449_YF] | 0.928 | 0.614 | 0.591 | 0.422 | 0.675 | 0.821 | 1.02 | 0.514 | 0.68 | 1.01 | 0.473 | 0.615 | 0.573 | 0.798 | 1.06 | 1.37
PSDLLYIPDIQ [ITGA2B_Y845_L847P] | 2 | 1.35 | 1.1 | 1.21 | 1.37 | 0.494 | 1.77 | 0.917 | 0.921 | 2 | 0.953 | 1.89 | 0.808 | 0.847 | 0.288 | 0.539
CTSIHYNYMCN [TP53_Y234_T231S] | 0.842 | 0.99 | 0.63 | 0.67 | 0.591 | 0.676 | 0.805 | 0.42 | 0.514 | 0.733 | 0.448 | 0.535 | 0.5 | 1.2 | 2.73 | 6.03
DDERGYRRVRS [GIGYF2_Y268] | 0.563 | 0.306 | 0.398 | 0.386 | 0.407 | 0.406 | 0.593 | 0.366 | 0.353 | 0.461 | 0.455 | 0.563 | 0.461 | 0.86 | 0.623 | 0.656
PSELFYSKISP [SMG1_Y2254_G2258S_YF] | 1.15 | 1.59 | 1.52 | 3.79 | 2.72 | 11.3 | 0.972 | 2.06 | 8.64 | 2.3 | 13.6 | 3.5 | 3.48 | 0.854 | 3.93 | 3.17
NHFKICNLCAE [PTEN_Y68_Y68C_YF] | 0.609 | 0.461 | 0.468 | 0.401 | 0.544 | 0.4 | 0.687 | 0.415 | 0.413 | 0.682 | 0.484 | 0.75 | 0.486 | 1.33 | 1.4 | 1.11
